{"source": "patent US20150125450A1", "about": "(published 2015)", "key": {"human TNF-β": {"target": "T1, human TNF-β (human, UniProt P01374 35-205, limits assumed)", "T1 sequence (looked up)": "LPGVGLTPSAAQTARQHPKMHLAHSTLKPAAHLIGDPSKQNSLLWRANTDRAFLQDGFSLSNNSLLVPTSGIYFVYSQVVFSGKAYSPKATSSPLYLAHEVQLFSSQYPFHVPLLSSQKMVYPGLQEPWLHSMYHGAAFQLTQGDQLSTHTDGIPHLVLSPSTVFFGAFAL", "experiment": "Western blotting, reducing conditions"}, "murine TNF-α": {"target": "T2, murine TNF-α (murine, UniProt P06804 80-235)", "T2 sequence (looked up)": "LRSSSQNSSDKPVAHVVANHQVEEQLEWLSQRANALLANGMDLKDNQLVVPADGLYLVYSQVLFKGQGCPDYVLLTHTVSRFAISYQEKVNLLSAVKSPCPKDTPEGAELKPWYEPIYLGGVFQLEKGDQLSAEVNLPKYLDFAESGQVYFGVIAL", "experiment": "Western blotting, reducing conditions"}, "human TNF-α": {"target": "human TNF-α (human, UniProt P01375 77-233)", "sequence (P01375 77-233 limits assumed)": "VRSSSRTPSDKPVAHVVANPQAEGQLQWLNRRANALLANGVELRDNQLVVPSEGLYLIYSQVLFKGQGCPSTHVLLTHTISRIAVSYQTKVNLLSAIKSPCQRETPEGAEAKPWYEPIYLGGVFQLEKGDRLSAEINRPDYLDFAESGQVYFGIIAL", "experiment": "cell-based or functional assay"}, "Cynomolgus monkey TNF-α": {"target": "Cynomolgus monkey TNF-α (Cynomolgus monkey, UniProt P79337 77-233)", "sequence (P79337 77-233 limits assumed)": "as the sequence (P01375 77-233 limits assumed) above, with L37V, R44T, T72N, R138L counted along it", "experiment": "ELISA"}, "murine IL-6": {"target": "T3, murine IL-6 (murine, UniProt P08505 25-211)", "T3 sequence (looked up)": "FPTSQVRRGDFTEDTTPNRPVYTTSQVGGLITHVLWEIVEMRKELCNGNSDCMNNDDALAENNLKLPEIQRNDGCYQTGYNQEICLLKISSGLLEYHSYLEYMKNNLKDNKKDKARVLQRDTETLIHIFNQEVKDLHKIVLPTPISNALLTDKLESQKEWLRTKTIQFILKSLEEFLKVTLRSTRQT", "experiment": "Western blotting"}, "human IL-6": {"target": "human IL-6 (human, UniProt P05231 30-212)", "experiment": "cell-based or functional assay"}}}
{"binder": "4C9 mouse anti-human TNF-α monoclonal antibody (antibody, mouse IgG1, V domains shown, Murine IgG1/kappa; 4C9D11 and 4C9D11G11 are subclones of 4C9; also called 4C9D11; 4C9D11G11) VH: VQLQESGPSLVKPSQTLSLTCSVTGDSITSGFWNWIRKFPGNKFEYMGYISYSGRTYYNPSLKSRLSITRDTSKNQFYLQLNSVTAEDTATYYCARDANYVLDYWGQGTTLTVSS VL: DIQLTQSPSSLAMSVGQKVTMNCKSSQSLLNSSTQKNYLAWFQQKPGQSPKLLVYFASARESGVPDRFIGSGSGTDFTLTISSVQAEDLADYFCQQHYRTPFTFGSGTKLEIKR", "values": [{"measurement": "binding result", "setting": "human TNF-β", "result": "no binding"}, {"measurement": "binding result", "setting": "murine TNF-α", "result": "no binding"}, {"measurement": "EC50, inhibition of TNF-α-induced cytotoxicity, L929 cells, MTS", "setting": "human TNF-α", "result": 0.0112, "unit": "µg/mL"}]}
{"binder": "chimeric 4C9 antibody (chimeric anti-TNF-α clone 6A9) (antibody, V domains shown, also called cIgG-anti-TNF-α) VH: VQLQESGPSLVKPSQTLSLTCSVTGDSITSGFWNWIRKFPGNKFEYMGYISYSGRTYYNPSLKSRLSITRDTSKNQFYLQLNSVTAEDTATYYCARDANYVLDYWGQGTTLTVSS VL: DIQLTQSPSSLAMSVGQKVTMNCKSSQSLLNSSTQKNYLAWFQQKPGQSPKLLVYFASARESGVPDRFIGSGSGTDFTLTISSVQAEDLADYFCQQHYRTPFTFGSGTKLEIKR", "values": [{"measurement": "binding result", "setting": "Cynomolgus monkey TNF-α", "result": "binds"}]}
{"binder": "2-3B2 mouse monoclonal antibody against human IL-6 (antibody, V domains shown, Murine IgG1/kappa hybridoma antibody; also called 2-3B2 anti-IL-6 antibody) VH: VKLQESGGGLVQPGGSRKLSCAASGFTFSRFGMHWVRQAPEKGLEWVAYIGRGSSTIYYADTVKGRFTISRDNPKNTLFLQMTSLRSEDTAMYYCARSNWDGAMDYWGQGTSVTVSS VL: DIQLTQSPASLSASVGETVTITCRASGNIHNFLAWYQQKQGKSPQLLVYNAETLADGVPSRFSGSGSGTQYSLKINSLQPEDFGSYYCQHFWSTPWTFGGGTKLEIKR", "values": [{"measurement": "binding result", "setting": "murine IL-6", "result": "no binding"}, {"measurement": "potency for inhibiting IL-6 induced phosphorylation of STAT3, relative to 4-4E6", "setting": "human IL-6", "result": "~100", "unit": "fold"}]}
